The values that follow come from the Immune Epitope Database (IEDB).

For orientation: Kd means the concentration at which binding is half-saturated. One may read the IC50 as the point on the concentration scale where inhibition reaches its midpoint. A higher IC50 goes with a need for much substance.

Assay [1] addresses HLA-B*44:02. As to the kind of experiment: IEDB peptide-MHC binding, purified MHC/direct/fluorescence; filed as Kd, often an IC50 or EC50 that approximates it; ≥ and ≤ were set here for values at or beyond the usual limits of such assays.
The target of assay [2] is HLA-B*18:01. The assay is described as above. Particulars: source organism: Dengue virus.
The target of assay [3] is HLA-B*40:01. Briefly: IEDB peptide-MHC binding, purified MHC/competitive/radioactivity; filed as Kd, often an IC50 or EC50 that approximates it; ≥ and ≤ were set here for values at or beyond the usual limits of such assays. Particulars: source organism: Dengue virus 1 Singapore/S275/1990.
Assay [4] addresses HLA-B*44:02. The description is as above.
Assay [5] deals with HLA-B*44:03. Described as above.
The target in assay [6] is HLA-B*15:03. The assay is described as above. Particulars: source organism: Vaccinia virus WR.
Assay [7] concerns the target HLA-B*15:01. Briefly: IEDB peptide-MHC binding, purified MHC/competitive/fluorescence; ≥ and ≤ were set here for values at or beyond the usual limits of such assays.
Assay [8] addresses HLA-A*02:01. Described as above.
The target of assay [9] is HLA-A*24:02. The description is as above.
Assay [10] concerns the target HLA-B*15:01. Briefly: IEDB peptide-MHC binding, purified MHC/competitive/radioactivity; filed as Kd, often an IC50 or EC50 that approximates it; ≥ and ≤ were set here for values at or beyond the usual limits of such assays. Particulars: source organism: Vaccinia virus WR.
The target of assay [11] is HLA-B*08:01. The assay is described as above. Particulars: source organism: Vaccinia virus WR.
Assay [12] deals with HLA-A*32:01. The assay is described as above. Particulars: source organism: Vaccinia virus WR.
Assay [13] addresses HLA-A*30:01. Described as above. Particulars: source organism: Vaccinia virus WR.
Assay [14] addresses HLA-B*48:01. As to the kind of experiment: IEDB peptide-MHC binding, purified MHC/direct/fluorescence; filed as Kd, often an IC50 or EC50 that approximates it; ≥ and ≤ were set here for values at or beyond the usual limits of such assays.
In assay [15] the target is HLA-A*69:01. The description is as above. Particulars: source organism: Salmonella enterica.
Assay [16] has as its target HLA-B*15:01. Described as above. Particulars: source organism: Salmonella enterica.
The target in assay [17] is HLA-A*03:01. The assay is described as above. Particulars: source organism: Salmonella enterica.
In assay [18] the target is HLA-A*11:01. The assay is described as above. Particulars: source organism: Salmonella enterica.
The target of assay [19] is HLA-B*40:01. The description is as above. Particulars: source organism: Salmonella enterica.
Assay [20] addresses HLA-A*24:03. Described as above. Particulars: source organism: Salmonella enterica.
The target of assay [21] is HLA-A*31:01. Described as above. Particulars: source organism: Salmonella enterica.
For assay [22], the target named is HLA-B*58:01. Described as above. Particulars: source organism: Salmonella enterica.
Assay [23] deals with HLA-B*08:01. Described as above. Particulars: source organism: Salmonella enterica.
Assay [24] addresses HLA-B*07:02. The assay is described as above. Particulars: source organism: Salmonella enterica.
Assay [25] deals with HLA-A*26:01. The description is as above. Particulars: source organism: Salmonella enterica.
The target of assay [26] is HLA-A*01:01. The description is as above. Particulars: source organism: Escherichia coli.
The target of assay [27] is HLA-A*02:01. Described as above. Particulars: source organism: Salmonella enterica.
Assay [28] addresses HLA-B*27:05. The assay is described as above. Particulars: source organism: Salmonella enterica.
Setting [29] is: source organism: Dengue virus 1 Singapore/S275/1990.
The mark [30] stands for this setting: source organism: Vaccinia virus WR.
The mark [31] stands for this setting: source organism: Dengue virus 2 Jamaica/1409/1983.
The mark [32] stands for this setting: source organism: Sudan ebolavirus.
Where [33] appears, read: source organism: Zaire ebolavirus.
Where [34] appears, read: source organism: Dengue virus 4 Philippines/H241/1956.
Where [35] appears, read: source organism: Dengue virus 1 Brazil/97-11/1997.
Setting [36] is: source organism: Dengue virus 3 Martinique/1243/1999.
[37] abbreviates: source organism: Vaccinia virus Copenhagen.

Take AELTGYGTV: the Kd was not below 20000 nM in assay [1] (source organism: Dengue virus) and 472 nM in assay [2].
With AENHHHATM, the Kd in [3] was determined as 10.1 nM; in assay [4] (setting [29]), 27.3 nM; in [5] (setting [29]), 115 nM.
As to ASTNLGSSF, in [6], the Kd was found to be 164 nM.
As for CMIRWLGGI, the values for the IC50 in assay [7] (setting [30]), in assay [8] (setting [30]) and in [9] (setting [30]) were 30300 nM, 428 nM and 4000 nM, respectively.
Regarding EEEQTLTILI, the results for the Kd in assay [4] (setting [31]) and in [5] (setting [31]) were 17.3 nM and 128 nM, respectively.
In the case of ELYMYFNHV, the Kd came to 1330 nM in assay [10], 238 nM in assay [11] and 414 nM in [6].
With EQFVGTNSI, the Kd in assay [6] amounted to 194 nM.
As to FINMTGNHF, the Kd in assay [10] was 16.1 nM; in assay [6], 34.2 nM.
For FKINIFMAF, the Kd in [11] worked out at 10600 nM; in [6] it was 10.2 nM.
With FQLNDTIHL, the results for the IC50 in assay [7] (setting [32]), in [8] (setting [32]) and in [9] (setting [32]) were 50500 nM, 1520 nM and 36900 nM, respectively.
As to FQQTNAMVT, the results for the IC50 in [7] (setting [33]) and in [8] (setting [33]) were 36100 nM and 11000 nM, respectively.
Turning to GEGLHRLGY, the Kd in assay [4] (setting [34]) stood at 11.5 nM; in assay [5] (setting [34]), 17.6 nM.
IETPNELSF: in [6], the Kd came to 288 nM.
Consider KEAVEDERFW, for which the Kd in assay [4] (setting [35]) was found to be 45.4 nM; in [5] (setting [35]), 305 nM.
Turning to KEEHNSTWHY, the Kd in assay [4] (setting [36]) is 183 nM; in assay [5] (setting [36]) it was 10500 nM.
In the case of KKVYTFFKF, the Kd in assay [6] stood at 3.63 nM.
As to KLLSHFYPA, the Kd was 129 nM in assay [12]; 38.7 nM in [10]; 3300 nM in assay [13]; 81 nM in assay [11]; 5.4 nM in [6].
As to KMSFLPIIF, the figures for the Kd in assay [12] and in assay [6] were 6.72 nM and 0.08 nM, respectively.
For the sequence KQYKFYNQI, the Kd in assay [12] was 10600 nM; in [10] it was 6630 nM; in assay [13], 1340 nM; in [11] it was not below 77700 nM; in assay [6] it was 121 nM.
In the case of LEFNTPFVF, in assay [6], the Kd stood at 10.4 nM.
With LHHAYQGDY, the IC50 in [7] (setting [33]) was not below 206000 nM.
As to LQYVHINEL, the Kd in assay [6] was 3.66 nM.
As to LYRPNIPLK, the Kd is not below 77800 nM in assay [12]; not below 55800 nM in assay [10]; 3.45 nM in assay [13]; not below 33300 nM in [11]; not below 69200 nM in [6].
As for MEDKTPVESW, the Kd stood at 33.2 nM in assay [4] (setting [31]) and 70.9 nM in assay [5] (setting [31]).
Turning to NERGKSLLF, the Kd was found to be 467 nM in assay [4] (setting [36]) and 122 nM in assay [5] (setting [36]).
As to NYLFGGFST, the IC50 in assay [7] (source organism: Variola virus) is not below 289000 nM; in assay [8] (source organism: Variola virus), 23400 nM; in [9] (source organism: Variola virus), 1650 nM.
Regarding RQMVNDMIF, the Kd in assay [6] turned out to be 1.25 nM.
As to RRLAATTEK, the Kd in [14] (source organism: West Nile virus) is not below 20000 nM.
With RTRNMFRKK, the Kd in assay [13] is 0.0892 nM; in assay [6], not below 51200 nM.
In the case of SEMIIPKIY, the figures for the Kd in assay [4] (setting [29]) and in assay [5] (setting [29]) were 8.61 nM and 12.8 nM, respectively.
With SMFLMTATL, the IC50 in assay [7] (source organism: Variola virus) stood at 1120 nM. In other words, the single-digit micromolar range.
For SMKTVFQVF, the Kd in assay [10] was 1.57 nM; in assay [11], 179 nM; in assay [6], 3.81 nM.
Regarding SQYANCSSI, the IC50 in assay [7] (setting [37]) was 7410 nM; in [9] (setting [37]), not below 82700 nM.
Take VGRVNPGTY: the IC50 is 29700 nM in [7] (source organism: Variola virus) and 5450 nM in [9] (source organism: Variola virus).
With VINRLGADL, the results for the IC50 in [7] (setting [30]) and in assay [8] (setting [30]) were not below 105000 nM and not below 76600 nM, respectively.
Consider VVANVIGLS, for which the figures for the IC50 in [7] (setting [37]) and in assay [8] (setting [37]) were 46900 nM and 26600 nM, respectively.
Consider VVNYEAGEW, for which the IC50 in assay [7] (setting [33]) was not below 119000 nM; in assay [9] (setting [33]) it was not below 75500 nM.
Turning to WEGNPGRFW, the Kd in assay [4] (setting [31]) was determined as 12.9 nM; in [5] (setting [31]), 89.4 nM.
In [14] (source organism: Campylobacter jejuni subsp. jejuni HB93-13), WKWFYKKYL yielded a Kd of 271 nM.
In the case of WTDLYTSMS, the Kd in assay [15], in [16], in [17], in assay [18], in assay [19] and in [20] was not below 20000 nM throughout. For the same sequence, the Kd in assay [21] was not below 20000 nM; in [22], not below 20000 nM; in [23], not below 20000 nM; in assay [24], not below 20000 nM; in [25] it was not below 20000 nM; in [26], 81.7 nM. The Kd in assay [27], in assay [1] (source organism: Salmonella enterica) and in assay [28] was not below 20000 nM throughout.
Take YDEDNPYKTW: the Kd in assay [4] (setting [35]) came out at 470 nM.
